{"source": "patent US20210017287A1", "about": "(published 2021)", "binders": {"B1": {"name": "42G2 (scFv, V domains shown)", "VH": "EVQLVESGGGLSQPGNSLQLSCEASGFTFSNHDLNWVRQAPGKGLEWVAYISSASGLISYADAVRGRFTISRDNAKNSLFLQMNNLKSEDTAMYYCARDPPYSGLYALDFWGQGTQVTVSS", "VL": "QPVLTQSPSASASLSGSVKLTCTLSSELSWYTIVWYQQRPDKAPKYVMYLKSDGSHSKGDGIPDRFSGSSSGAHRYLSISNVQSEDDATYFCGAGYTLAGQYGWVFGSGTKVTVL", "notes": "scFv"}, "B2": {"name": "1F10 (scFv, V domains shown)", "VH": "EVQLVESGGGLSQPGNSLQLSCEASGFTFSNHDLNWVRQAPGKGLEWVAYISSASGLISYADAVRGRFTISRDNAKNSLFLQMNNLKSEDTAMYYCARDPAYTGLYALDFWGQGTQVTVSS", "VL": "QPVLTQSPSASASLSGSVKLTCTLSSELSNFTIVWYQQRPDKAPKYVMYLKSDGSHSKGDGIPDRFSGSSSGAHRYLSISNVQSEDDATYFCGAGYTLASQYGWVFGSGTKVTVL", "notes": "scFv; Frameworks and unchanged CDRs are those of the parental clone"}, "B3": {"name": "W3072-z4C12-scFv (scFv, V domains shown)", "VH": "EVQLVESGGGLSQPGNSLQLSCEASGFTFSNHDLNWVRQAPGKGLEWVAYISSASGLISYADAVRGRFTISRDNAKNSLFLQMNNLKSEDTAMYYCARDPPYSGLYALDFWGQGTQVTVSS", "VL": "QPVLTQSPSASASLSGSVKLTCTLSSELSSYTIVWYQQRPDKAPKYVMYLKSDGSHSKGDGIPDRFSGSSSGAHRYLSISNVQSEDDATYFCGAGYTLAGQYGWVFGSGTKVTVL", "notes": "scFv (captured by anti-c-myc antibody); also called WT; wild-type"}, "B4": {"name": "9G2 (scFv, V domains shown)", "VH": "EVQLVESGGGLSQPGNSLQLSCEASGFTFSNHDLNWVRQAPGKGLEWVAYISSASGLISYADAVRGRFTISRDNAKNSLFLQMNNLKSEDTAMYYCARDPAYTGLYALDFWGQGTQVTVSS", "VL": "QPVLTQSPSASASLSGSVKLTCTLSSELSWYTIVWYQQRPDKAPKYVMYLKSDGSHSKGDGIPDRFSGSSSGAHRYLSISNVQSEDDATYFCGAGYTLAGQYGWVFGSGTKVTVL", "notes": "as for B2"}, "B5": {"name": "9A5 (scFv, V domains shown)", "VH": "EVQLVESGGGLSQPGNSLQLSCEASGFTFSNHDLNWVRQAPGKGLEWVAYISSASGLISYADAVRGRFTISRDNAKNSLFLQMNNLKSEDTAMYYCARDPAYTGLYALDFWGQGTQVTVSS", "VL": "QPVLTQSPSASASLSGSVKLTCTLSSELSGFTIVWYQQRPDKAPKYVMYLKSDGSHSKGDGIPDRFSGSSSGAHRYLSISNVQSEDDATYFCGAGYTLANQYGWVFGSGTKVTVL", "notes": "as for B2"}, "B6": {"name": "2A5 (scFv, V domains shown)", "VH": "EVQLVESGGGLSQPGNSLQLSCEASGFTFSNHDLNWVRQAPGKGLEWVAYISSASGLISYADAVRGRFTISRDNAKNSLFLQMNNLKSEDTAMYYCARDPAYTGLYALDFWGQGTQVTVSS", "VL": "QPVLTQSPSASASLSGSVKLTCTLSSELSNFTIVWYQQRPDKAPKYVMYLKSDGSHSKGDGIPDRFSGSSSGAHRYLSISNVQSEDDATYFCGMGYTLANQYGWVFGSGTKVTVL", "notes": "as for B2"}, "B7": {"name": "10B8 (scFv, V domains shown)", "VH": "EVQLVESGGGLSQPGNSLQLSCEASGFTFSNHDLNWVRQAPGKGLEWVAYISSASGLISYADAVRGRFTISRDNAKNSLFLQMNNLKSEDTAMYYCARDPAYSGLYALDFWGQGTQVTVSS", "VL": "QPVLTQSPSASASLSGSVKLTCTLSSELSNFTIVWYQQRPDKAPKYVMYLKSDGSHSKGDGIPDRFSGSSSGAHRYLSISNVQSEDDATYFCGAGYTLAGQYGWVFGSGTKVTVL", "notes": "as for B2"}, "B8": {"name": "3G4 (scFv, V domains shown)", "VH": "EVQLVESGGGLSQPGNSLQLSCEASGFTFSNHDLNWVRQAPGKGLEWVAYISSASGLISYADAVRGRFTISRDNAKNSLFLQMNNLKSEDTAMYYCARDPAYTGLYALDFWGQGTQVTVSS", "VL": "QPVLTQSPSASASLSGSVKLTCTLSSELSGFTIVWYQQRPDKAPKYVMYLKSDGSHSKGDGIPDRFSGSSSGAHRYLSISNVQSEDDATYFCGAGYTLARQYGWVFGSGTKVTVL", "notes": "as for B2"}, "B9": {"name": "5E1 (scFv, V domains shown)", "VH": "EVQLVESGGGLSQPGNSLQLSCEASGFTFSNHDLNWVRQAPGKGLEWVAYISSASGLISYADAVRGRFTISRDNAKNSLFLQMNNLKSEDTAMYYCARDPAYTGLYALDFWGQGTQVTVSS", "VL": "QPVLTQSPSASASLSGSVKLTCTLSSELSNYTIVWYQQRPDKAPKYVMYLKSDGSHSKGDGIPDRFSGSSSGAHRYLSISNVQSEDDATYFCGMGYTLANQYGWVFGSGTKVTVL", "notes": "as for B2"}, "B10": {"name": "5A6 (scFv, V domains shown)", "VH": "EVQLVESGGGLSQPGNSLQLSCEASGFTFSNHDLNWVRQAPGKGLEWVAYISSASGLISYADAVRGRFTISRDNAKNSLFLQMNNLKSEDTAMYYCARDPPYTGLYALDFWGQGTQVTVSS", "VL": "QPVLTQSPSASASLSGSVKLTCTLSSELSNFTIVWYQQRPDKAPKYVMYLKSDGSHSKGDGIPDRFSGSSSGAHRYLSISNVQSEDDATYFCGAGYTLANQYGWVFGSGTKVTVL", "notes": "as for B2"}, "B11": {"name": "6G11 (scFv, V domains shown)", "VH": "EVQLVESGGGLSQPGNSLQLSCEASGFTFSNHDLNWVRQAPGKGLEWVAYISSASGLISYADAVRGRFTISRDNAKNSLFLQMNNLKSEDTAMYYCARDPPYSGLYALDFWGQGTQVTVSS", "VL": "QPVLTQSPSASASLSGSVKLTCTLSSELSNFTIVWYQQRPDKAPKYVMYLKSDGSHSKGDGIPDRFSGSSSGAHRYLSISNVQSEDDATYFCGAGYTLAGQYGWVFGSGTKVTVL", "notes": "as for B2"}, "B12": {"name": "4B6 (scFv, V domains shown)", "VH": "EVQLVESGGGLSQPGNSLQLSCEASGFTFSNHDLNWVRQAPGKGLEWVAYISSASGLISYADAVRGRFTISRDNAKNSLFLQMNNLKSEDTAMYYCARDPAYTGLYALDFWGQGTQVTVSS", "VL": "QPVLTQSPSASASLSGSVKLTCTLSSELSNYTIVWYQQRPDKAPKYVMYLKSDGSHSKGDGIPDRFSGSSSGAHRYLSISNVQSEDDATYFCGAGYTLANQYGWVFGSGTKVTVL", "notes": "as for B2"}, "B13": {"name": "66B8 (scFv, V domains shown)", "VH": "EVQLVESGGGLSQPGNSLQLSCEASGFTFSNHDLNWVRQAPGKGLEWVAYISSASGLISYADAVRGRFTISRDNAKNSLFLQMNNLKSEDTAMYYCARDPPYSGLYALDFWGQGTQVTVSS", "VL": "QPVLTQSPSASASLSGSVKLTCTLSSELSSYTIVWYQQRPDKAPKYVMYLKSDGSHSKGDGIPDRFSGSSSGAHRYLSISNVQSEDDATYFCGAGYTLANQYGWVFGSGTKVTVL"}, "B14": {"name": "43F11 (scFv, V domains shown)", "VH": "EVQLVESGGGLSQPGNSLQLSCEASGFTFSNHDLNWVRQAPGKGLEWVAYISSASGLISYADAVRGRFTISRDNAKNSLFLQMNNLKSEDTAMYYCARDPPYSGLYALDFWGQGTQVTVSS", "VL": "QPVLTQSPSASASLSGSVKLTCTLSSELSSFTIVWYQQRPDKAPKYVMYLKSDGSHSKGDGIPDRFSGSSSGAHRYLSISNVQSEDDATYFCGAGYTLAGQYGWVFGSGTKVTVL"}, "B15": {"name": "42F9 (scFv, V domains shown)", "VH": "EVQLVESGGGLSQPGNSLQLSCEASGFTFSNHDLNWVRQAPGKGLEWVAYISSASGLISYADAVRGRFTISRDNAKNSLFLQMNNLKSEDTAMYYCARDPPYSGLYALDFWGQGTQVTVSS", "VL": "QPVLTQSPSASASLSGSVKLTCTLSSELSFYTIVWYQQRPDKAPKYVMYLKSDGSHSKGDGIPDRFSGSSSGAHRYLSISNVQSEDDATYFCGAGYTLAGQYGWVFGSGTKVTVL"}, "B16": {"name": "42H8 (scFv, V domains shown)", "VH": "EVQLVESGGGLSQPGNSLQLSCEASGFTFSNHDLNWVRQAPGKGLEWVAYISSASGLISYADAVRGRFTISRDNAKNSLFLQMNNLKSEDTAMYYCARDPPYSGLYALDFWGQGTQVTVSS", "VL": "QPVLTQSPSASASLSGSVKLTCTLSSELSYYTIVWYQQRPDKAPKYVMYLKSDGSHSKGDGIPDRFSGSSSGAHRYLSISNVQSEDDATYFCGAGYTLAGQYGWVFGSGTKVTVL"}, "B17": {"name": "10C3 (scFv, V domains shown)", "VH": "EVQLVESGGGLSQPGNSLQLSCEASGFTFSNHDLNWVRQAPGKGLEWVAYISSDSGLISYADAVRGRFTISRDNAKNSLFLQMNNLKSEDTAMYYCARDPPYSGLYALDFWGQGTQVTVSS", "VL": "QPVLTQSPSASASLSGSVKLTCTLSSELSSYTIVWYQQRPDKAPKYVMYLKSDGSHSKGDGIPDRFSGSSSGAHRYLSISNVQSEDDATYFCGAGYTLAGQYGWVFGSGTKVTVL", "notes": "scFv"}, "B18": {"name": "12F7 (scFv, V domains shown)", "VH": "EVQLVESGGGLSQPGNSLQLSCEASGFTFSNHDLNWVRQAPGKGLEWVAYISSASQLISYADAVRGRFTISRDNAKNSLFLQMNNLKSEDTAMYYCARDPPYSGLYALDFWGQGTQVTVSS", "VL": "QPVLTQSPSASASLSGSVKLTCTLSSELSSYTIVWYQQRPDKAPKYVMYLKSDGSHSKGDGIPDRFSGSSSGAHRYLSISNVQSEDDATYFCGAGYTLAGQYGWVFGSGTKVTVL", "notes": "scFv; Position 12 is a library position read from the clone ID"}}, "data": [{"molecular_target": "T1, TNFRSF25-Fc fusion protein (UniProt Q93038 25-199, limits assumed, biotinylated in the capture ELISA (site not stated))", "T1 construct": "also called TNFRSF25-Fc protein; biotinylated antigen protein; not shown: Fc part", "T1 sequence (looked up)": "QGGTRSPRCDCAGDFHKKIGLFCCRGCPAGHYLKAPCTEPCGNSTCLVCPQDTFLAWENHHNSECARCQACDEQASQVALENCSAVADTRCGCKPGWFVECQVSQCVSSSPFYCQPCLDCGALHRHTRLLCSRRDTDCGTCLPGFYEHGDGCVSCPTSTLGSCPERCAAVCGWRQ", "assay": "capture ELISA of scFv, against W3072-z4C12-scFv", "method": "(§1) Primary screening of the scFv library: The primary screen consisted of a single point ELISA (SPE) assay, which was carried out using periplasmic extract (PE) of bacteria grown in 96-well (deep well) plates. Briefly, this capture ELISA involved coating individual wells of a 96-well Maxisorp Immunoplate with anti-c-myc antibody in coating buffer (200 mM Na₂CO₃/NaHCO₃) at pH 9.2 overnight at 4° C. The next day, the plate was blocked with Casein for 1 hour at room temperature. scFv PE was then added to the plate and incubated at room temperature for 1 hour. After washing, biotinylated antigen protein was added to the well and the mixture was incubated for 1 hour at room temperature. This was followed by incubation with streptavidin-horseradish peroxidase (HRP) conjugate for 1 hour at room temperature. HRP activity was detected with tetra-methyl-benzidine (TMB) substrate, and the reaction was quenched with 2M HCl. Plates were read at 450 nm. […] The scFv protein concentration was determined by comparing the ELISA signals with signals generated by the reference scFv. The binding assay was repeated once more for all positive variants under normalized scFv concentrations in order to determine the relative binding affinity of the mutant scFv and the parental antibody. Selected scFv hits displaying improved binding were re-formulated to IgG1 and tested in a caspase-3 assay as described below.", "units": {"fold increase in ELISA signal": "fold"}, "values": [{"binder": "B1", "fold increase in ELISA signal": "> 10"}]}, {"molecular_target": "T1, TNFRSF25-Fc fusion protein", "assay": "binding ELISA of scFv clones on TNFRSF25-Fc (FIG. 10)", "values": [{"binder": "B2", "Bmax": 1.73}, {"binder": "B3", "Bmax": 0.1}, {"binder": "B4", "Bmax": 1.04}, {"binder": "B5", "Bmax": 1.81}, {"binder": "B6", "Bmax": 1.28}, {"binder": "B7", "Bmax": 1.49}, {"binder": "B8", "Bmax": 1.53}, {"binder": "B9", "Bmax": 1.32}, {"binder": "B10", "Bmax": 1.89}, {"binder": "B11", "Bmax": 1.32}, {"binder": "B12", "Bmax": 1.26}, {"binder": "B1", "Bmax": 0.447}]}, {"molecular_target": "T1, TNFRSF25-Fc fusion protein", "assay": "single point capture ELISA, scFv captured by anti-c-myc, biotinylated antigen", "method": "as §1", "units": {"OD450": "OD450"}, "values": [{"binder": "B13", "OD450": 0.4}, {"binder": "B14", "OD450": 1.6}, {"binder": "B15", "OD450": 2.33}, {"binder": "B16", "OD450": 1.67}, {"binder": "B17", "OD450": 0.7}, {"binder": "B18", "OD450": 0.85}, {"binder": "B1", "OD450": 3.19}]}]}
